Earlier results as cited in PMC6667139.

Target: TGFβ receptor I and II (Homo sapiens) (UniProt P36897)
Sequence (P36897 34-126, chain 1 of 2): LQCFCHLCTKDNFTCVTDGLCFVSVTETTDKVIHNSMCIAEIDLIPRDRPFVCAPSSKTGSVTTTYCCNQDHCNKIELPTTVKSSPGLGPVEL
Sequence (partner, as listed by the source, chain 2 of 2): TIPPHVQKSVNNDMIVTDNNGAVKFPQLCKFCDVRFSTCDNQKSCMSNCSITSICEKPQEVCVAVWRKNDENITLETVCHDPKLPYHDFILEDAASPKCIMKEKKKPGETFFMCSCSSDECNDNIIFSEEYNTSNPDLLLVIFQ

Sequence of TGFβ (P01137 279-390): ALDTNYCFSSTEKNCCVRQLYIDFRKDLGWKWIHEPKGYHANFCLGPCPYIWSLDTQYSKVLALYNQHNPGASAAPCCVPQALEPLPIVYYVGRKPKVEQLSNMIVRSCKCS

Kd: 0.05 nM
Substance: TGFβ (from UniProt P01137)
